Experiment: soluble on expression in E. coli; label from the status in PepcDB or PDB records

| Sequence | soluble on expression in E. coli |
| --- | --- |
| MTHSPSFLQHALSSSDTRAEWPLPGGLAARWLAPGCVELNGDARGADSVLLSCGVHGNETAPIEVVDGMLTDIAAGQLALNCRLLVMFANLDAIRQGVRYGNYDMNRLFNGAHARHPELPESVRAAELETLAAEFFAGARARKLHYDLHTAIRGSVFEKFAIYPFLHDGRTHKREQLAWLQRCGIEAVLLHTQPANTFSYFTSQYCEADAFTLELGKARPFGQNDLSRFSGIDGALRGLLSNPQANVPDLDEDKLPLFRAKYDLVKHSEAFKLNLADSVENFTLLPDGMLIAEDGAVRYQATGGEERILFPNPAVKPGLRAGIVVEPARLPSRLEHHHHHH | soluble |
| MTIIKLERRDVRLLLLYEFRLGHSAMEAERNICGAMGEGALSYNTAKSWFQKFKNGDFSLEEIERSGRPVELNEEDLVKLVEEEPRLSLREMEEKLECCHSTIARHLGRLGFTSKLGIWVPHELSASQKLTRVNVCTQLLTFRRKFDWLNNLVTGDEKWVLYVNHSRKRQWLPIGEKGIPTPKPDLHPKKIMICVWWGVQGPVHWELLPTNKTITADYYCAQLDRVAEKTNGKYEKLYFLHDNARPHVAKKTFQKLQDLGWTVLPHPPYSPDLAPTDYHLFLSLSDYMRDKQFDDEEHLKTELSTFFSSRSPDFFSRGIMMLPSKWQQVVDTNGEYLCE | not soluble |
| MTISFNTVPSNTLVPLFYAEMNNSAANTAVTSAPALLIGHASNDAAIEVNSLVLMPSADYARQICGAGSQLARMVEVYRQTDPFGELYVIAVPEARGAAATVRVTVAGEAEESGTLSLYVGRSRVQVPVVNGDDATAVATAIKEAVNGVITLPFTASSDAGVVTLTARHKGLYGNELPVCLNYYGSGGGEILPAGLRVVTEVGAAGSGAPDLTAAVAAMGDEAFDFIGLPFNDAASINMMMTEMNDSSGRWSYARQLYGHVYTAKLGTLSELVGAGDMHNQQHITLAGYEKETQSPVDELVASRLAREAVFIRNDPARPTQTGELVGMLPAPKGKRFIMTEQQTLLSHGVATAYVEGGTLQIQRSVTTYKKNAYGVADNSYLDSETLHTSAYVLRKLKSVITSKYGRHKLANDGTRFGPGQAIVTPAVIKGELLATYRQMERAGIVENYDLFKQYLIVERDADNPNRLNTLFPPDYVNQLRVFAVVNQFRLQYSEESA | not soluble |
| MTKITLSDLPLREELRGEHAYGAPQLNVDIRLNTNENPYPPSEALVADLVATVDKIATELNRYPERDAVELRDELAAYITKQTGVAVTRDNLWAANGSNEILQQLLQAFGGPGRTALGFQPSYSMHPILAKGTHTEFIAVSRGADFRIDMDVALEEIRAKQPDIVFVTTPNNPTGDVTSLDDVERIINVAPGIVIVDEAYAEFSPSPSATTLLEKYPTKLVVSRTMSKAFDFAGGRLGYFVANPAFIDAVMLVRLPYHLSALSQAAAIVALRHSADTLGTVEKLSVERVRVAARLEELGYAVVPSESNFVFFGDFSDQHAAWQAFLDRGVLIRDVGIAGHLRTTIGVPEENDAFLDAAAEIIKLNLSAWSHPQFEK | soluble |
| MTKKSTIQPCLVCGQSSNSILFGAPSCRACGEFFRRKVISNFKIKNNCLGECSFAKKSMKPCQSCRFQKCLEAGMLEKMVFSRKAIYSISNFEKSILEELEEAYSKLEHGRNETFNPKSDSNPKFCSHEELNNTCTIDIQIILDNLISYFQAKKPMGKEQDDVLKMHFIVPFVLFDTAFRAIGKSSYISPDGTMFGGSYVEKLYQDSSNSKIGVNNGKTSREIMESYWKVSYKILKSEMELLQLDRSEFLLLSALIYWDFGLENQSDKCCENCNTIREKVLKELVKYERKKSGQNALRIAMIMGLLQAVPKALDVMKTCGFLSKIYNLRGSGCPLYAISTNSPPQ | not soluble |
| MTLENNMDKKLFCISTYGCQMNEEDSEKLSGMLKSQGYERTENKEEASIIIFNTCCVRENAENKVFGNLGQLKQLKKKNPNLVIAICGCMMQQVGMADKVLKTFPYVDIIFGTHNAHKFPEYLHRVLQEGVQVKEILNKEEGIVEGLPIDRKSDVKAFVTIMYGCNNFCTYCIVPYVRGRERSRKSEDIIKEIEELVSQGYKEITLLGQNVNSYGKGLEEDIDFAGLLRKVNEVKGLERVRFMTSHPKDLSDDVIMAIKECDKLCEQVHLPVQSGSSRILKEMNRHYDREYYLDLVKKIKSEIPDVTLTTDIIIGFPGETEEDFLDTLSLCEEVGYDSAFTFIYSRRNHTPADKMENQIPDDIKHDRFNRLVEAINKKVVIKNKEYEGKVVEVLVEGPSKNDETKLTGRTRNGKLVNFAGDEKLVGELVNLKIVRAQPFSLIGEIVE | soluble |
| MTLGARLVAPMIILLLFIPIELVKAEVITLTPETFSDKIKEKDTAWFVKFCVPWCKHCKKLGNLWEDLGKAMEGDDEIEVGEVDCGTSRAVCTKVEIHSYPTFMLFYNGEEVSKYKGKRDVESLKAFVVEETEKAAEKAQLEDKEL | soluble |
| MTLIILEGPDCCFKSTVAAKLSKELKYPIIKGSSFELAKSGNEKLFEHFNKLADEDNVIIDRFVYSNLVYAKKFKDYSILTERQLRFIEDKIKAKAKVVYLHADPSVIKKRLRVRGDEYIEGKDIDSILELYREVMSNAGLHTYSWDTGQWSSDEIAKDIIFLVELEHHHHHH | soluble |
| MTLISRIKQLAQSKQLTLAQLERNVGISNGQIRRWDTSSPKVENLLKIADYFSVSLDYLMGRTQQTEINHQAPMKSTQKELHIHITTEELTEEEITQLEEEANRFLRFRKFEMTNS | not soluble |
| MTLKFSYFGTRGIGEPIRMLLTDQEVAFIDHRFSWEQWADIKPTMIFGSCPCLTMGDKEIVQSGTIIRHLARIHGLNGTNEEETIFIDMFYEGVRDLHATYATMIYQNYENGRQPFIQDVLPEHLARLEKLFRTYENGENFVAGANISYVDYVLFEELDIQKILSPTALDRTPQLKKFHEQFGERKNLTEYLKKRAIMKTPVNGNGKQ | not soluble |
| MTLLNSRRAAGAFATTLVASTLGLSGCTSVTSSATSSPEPPTKVAAAMQTTTGETSISNETSFNASRETSLTALGFLDYLDEEQRAALLGEGLDISTLTWANQVTALRVLESLFNEHAYELVSAVIQHVAQEPGDNPHHFLKFSPEPSTENSWELTLDGPTVGLKVTFDPDGQITFKDAHLGLSPAEVVSVTEALDTSYSESQIKKAAEQLVGSLNPTQQAALQGSGLRGAQLTEEQKTLFLKMTSNWIDLANGDSGSEQQEEIADTFSDTYIIWNEQKDGSAFFQMKGPELDFSYKESVPENAELSARGVPNIQTSFQSPLEHHHHHH | not soluble |
| MTLLRGTVRTKTSCQLVSAIGTQNCTVWEGYEVSEITPGNSNTSYITWKRSVPNTNLSQPITSCPASTVKFPTCKVGWKLFPRYNTYWCLTLGINRRERDGYLLQFDQSFSYVACRWDGSEFIDGRISGLESNEERAYATDRAYQIMKQNMRETLFVFPSNVRLGWGVWVDGVKDVAGQVKYSDTTLNLKLGYKWDIGQPNWVSRKQACVMLMVPVNQSSRSNGSLRTAEYLRSI | not soluble |
| MTLRAAVFDLDGVLALPAVFGVLGRTEEALALPRGLLNDAFQKGGPEGATTRLMKGEITLSQWIPLMEENCRKCSETAKVCLPKNFSIKEIFDKAISARKINRPMLQAALMLRKKGFTTAILTNTWLDDRAERDGLAQLMCELKMHFDFLIESCQVGMVKPEPQIYKFLLDTLKASPSEVVFLDDIGANLKPARDLGMVTILVQDTDTALKELEKVTGIQLLNTPAPLPTSCNPSDMSHGYVTVKPRVRLHFVELGSGPAVCLCHGFPESWYSWRYQIPALAQAGYRVLAMDMKGYGESSAPPEIEEYCMEVLCKEMVTFLDKLGLSQAVFIGHDWGGMLVWYMALFYPERVRAVASLNTPFIPANPNMSPLESIKANPVFDYQLYFQEPGVAEAELEQNLSRTFKSLFRASDESVLSMHKVCEAGGLFVNSPEEPSLSRMVTEEEIQFYVQQFKKSGFRGPLNWYRNMERNWKWACKSLGRKILIPALMVTAEKDFVLVPQMSQHMEDWIPHLKRGHIEDCGHWTQMDKPTEVNQILIKWLDSDARNPPVVSKM | soluble |
| MTLRSQDPRIAIIGGGIAGATAAVHLGELGLNVVLMEKSAGLVSGPPICHLHAGGNLYREISEQQCIDLLEQSIETVRLYPHTLNVRPTLIAIPQSDPGQPEEILPRLVTIQNAYRKLVEQDAANQVLGAVDNYYRLYQREELERLAQQQQANPPQSDDEWVIPFAQHADLAQLKYPVVLVQEYGWSVFRLAASVDLTLEALPNCQVMLRTELVDATFQDNQWRLTYLDAQGERHTQTVDYLVNACGFETGRVDDMARHHRQRLVEFKAAYVTHWPACHQWWPEVIFHGPRGSEDGMAQLTPYADGTFQLHGMTESITLFADGLVASTPTSAQPQLPLYLQHKIERGWPMSAQQERTVRAIQHMSRFVPSFDNAEFAGKPLFGAQQIPGDDVTLRAADVSFEANQYARLEVVKGSSALRAARQLVAVWQLKPDAGELSIETEHPCSMAFTAQQVEQQAIRLCHARGYPAALAKVYGLLEHHHHHH | soluble |
| MTLTAQKNSWWVGAHAGREYFNNTSEDMKKGWNTGVVLRYYFSDRIYSLATLNYGFASSLSPSGYFDELGNSPNARFRRHSILPAVGLGYEFFQGDFYSCYAQGGVGYGMEYNSVSYPQEYDVSVKRFGWLAELGGDYFLRDNLSLGISVAHLRVGWRNNWTANVKLSICLL | not soluble |
| MTLYRLHEADLEIPDAWQDQSINIFKLPASGPAREASFVISRDASQGDAPFADYVARQLENAEKQLPGFKLHKRWDINIHGHAAVLLDYQWQREGRDLMLRQVFIERRPAVLITTLTTTPADLPHHEPAWKQAMQTLVPRPTPS | soluble |
| MTMFGKIFSKKTPKTDIKSNGEALNASEIEQFIKDTLSHYISDNFPQGVLAVCQQLSITQKKKITIKLLMPFVCQGELDLLAQTLSENLARTVNFEIDLAIKPVRQFSLGNDKNKAGQEGMLQGKVANIIAIASGKGGVGKSTTTVNLAYALMCEGARVGILDADIYGPSIPSMLGLKNEKPSSSDGKLMTPVDAKGLSAMSIGFLVDEADATVWRGPMASSAFNQLLNETDWPELDYLLIDMPPGTGDIQLTLAQKVPVAAAVIVTTPQDIALIDAVKGIAMFDKVKVPVLGIVENMSYHLCENCGHKSHIFGEAGGEHMAEDHETKLLGQLPLDITIRQDADFGESDIIENSAGEIANHYRKIARNVSAQLFLQCDTASPLTATVAHKALEHHHHHH | soluble |
| MTMKGGVASQDFSAAIATACEPAANVWSKVCVALKRELGDAAFGSWIAPAMLREAATGDVVLVTSTGIARDWIRRSAWRRIGELWAAHDATGRRIDLKSRLEFEAAAGAYVEATPKAVAAEPIEIVLPVSTDAPTVVAPSAKSPRTQGLQERFTFETFVPGPANEFAHAVARRIANWADGHFNPVLFHGPYGFGKTHLLNALAWEAMRNAPEKRVVYLTAERFLSTFVRAVMDRQTAAFKEELRAADLLIIDDVHFIAGKQSTQEELFHTLTALVGEGGRVVFSADRPPSAMTEMDAHLRSHLSAGLVCGLEPADRNLRLGILERKIQTLGAAHGFEPSIRPEVMQFLADRFTDSVRELEGALNTLSARAGEGLSRMTLDEVQAILRPHLRSGEKRITIDDIQKATAEHYGMKQADLLSERRNRAVARPRQAAMWLAKQLTTRSLPDIGRRFGGRDHTTVLHAVRRIEALRAEDSALSHDLETLTRKLRGLEHHHHHH | not soluble |
| MTMLKNNLELLKKRYPEIYNEIKDIHVDSNAYQIIQNNEGQKTLKVTLDLYGENKSFFLHSKYHPDVEADRFAREQYKPEFSIQILYGFGLGYHVEKIAGLLKPDSMLYVIENNLMVFRSALENMDLCPILENRNVSLIVSKDVGYISEKVKELIDNNLDKVSFITHPASLKAIPEENEYFKFVMENWNLKKSITDDYDNTLRNNAKENLKLNSPNVGIFFDKFKDVPIIIVSTGPSLDKNIDLLKEAKGRALIISAGSALRPLLMRNIKPDFFAIIDPQDITYNQIKGYENIGIPFIYLVTAASYTVSRYLGPKLVAYYGKYNNSSEHLVDSGGSVATTILDIAIKMGGNPIILVGQDLAYVDGKNHAQYGSHASIYSPELKNMRRVKGQNGEMLYTSLGLLSYKYWIENRIQKEKRIFINATEGGAYIEGMKHIKLRDVISDYLKESFDFENKIKSILKESGIQHVQG | soluble |

From the DeepSol protein solubility set
